From paper PMC3089910 (Analytical biochemistry, 2010)

Tests used:
[1] = target: human lactoferrin (hLF), iron-free, in the presence of Zn2+ (human); assay: AUC
AUC = target: the molecule itself; assay: AUC

B1: rTp34, Tp34 from Treponema pallidum, in the presence of Zn2+ (natural protein)
chain: CGGGGEHQHGEEMMAAVPAPDAEGAAGFDEFPIGEDRDVGPLHVGGVYFQPVEMHPAPGAQPSKEEADCHIEADIHANEAGKDLGYGVGDFVPYLRVVAFLQKHGSEKVQKVMFAPMNAGDGPHYGANVKFEEGLGTYKVRFEIAAPSHDEYSLHIDEQTGVSGRFWSEPLVAEWDDFEWKGPQW
With B1 the stoichiometry N [1] was 2 and the “stoichiometry N” value (AUC) was 2.
